Numbering of substitutions follows the chain as printed. Where two headings read alike, the source gives them in different places.
How the values were obtained:
[1] = test system: healthy evaluators; test: Determination of sweetness threshold by human sensory evaluation; type: in vivo; settings: for Sweetness fold relative to 1% sucrose: =10000/(sample sweetness threshold); for Concentration (μg/mL) corresponding to threshold: sweetness threshold, protein diluted with mineral water (pH 6.9), averaged for 10 individuals
Protocol: Since the recombinant Brazzein of the present disclosure is not a sugar-based compound, it is impossible to measure the sweetness by using a saccharometer. Therefore, the sweetness threshold is measured using human sensory evaluation. For most people, the sweetness threshold for sugar in soft drinks is 0.32%-1.0%. To assess the sweetness threshold for each solution, an 1% sucrose solution is used as the solution with minimum concentration at which sweetness is felt, i.e., the sweetness threshold is 10000 μg/mL The sweetness potency of the Brazzein described herein relative to sucrose is generally in a range of 1:500 to 1:16,000. The samples tested included naturally extracted Brazzein (homemade, about 95% pure), recombinant Brazzein and mutants thereof, sucrose and mineral water. The protein was diluted in a gradient from 0.5 to 20 μg/ml by diluting the dry protein powder with mineral water (pH 6.9). Ten healthy evaluators (five males and five females) aged between 30 and 50 participated in the assessment, five of whom were trained wine tasters. Tasting started at the lowest concentration, with concentration increased by 1 μg/ml each time until sweetness was felt; then based on this concentration, the concentration was reduced by 0.1 μg/ml at a time until sweetness was not felt; and the sweetness threshold of the sample was determined by gradually decreasing the concentration gradient in such a way. 20 ml of samples were tested randomly compared to sugar solutions. Before each analysis, the evaluator was asked to rinse his/her mouth with water and eat the neutral crackers until there was no residual taste. The test solution was held in oral cavity for at least 10 seconds. Thereafter, evaluators provided scores against samples on the basis of their responses between 0 and 10; 0—no sweet feeling, 10—highly sweet. The final results for each protein were averaged for 10 individuals. The sweetness factor of Brazzein and mutants thereof relative to 1% sucrose=10000/(sample sweetness threshold).

[2] = cited from earlier work; for sweetness relative to sucrose of the same weight: calculated by weight, prior art; for sweetness delay: prior art CN 102498126 A
[3] = aqueous solution, 80° C. for 4 hours; cited from earlier work
[4] = test system: healthy evaluators; settings: 1% sucrose solution used as minimum concentration at which sweetness is felt; cited from earlier work

Molecule: Brazzein (QDKCKKVYENYPVSKCQLANQCNYDCKLDKHARSGECFYDEKRNLQCICDYCEY; UniProt P56552 1-54, looked up) [Naturally extracted Brazzein, naturally extracted Brazzein (homemade, about 95% pure), reference compound]
- Sweetness fold relative to 1% sucrose [1]: 501 fold
- Concentration (μg/mL) corresponding to threshold [1]: 20 ± 3.9 µg/mL

Molecule: Brazzein
- sweetness relative to sucrose of the same weight ([2]; listed as Brazzein expressed in an Aspergillus oryzae host in patent CN102498126A): 510 times
- sweetness relative to sucrose of the same weight ([2]; listed as expressed Brazzein): about 510 times
- sweetness delay [2]: about 1.5 seconds
- sweetness delay ([2]; listed as expressed Brazzein): obvious sweetness delay

Molecule: Brazzein [Brazzein] (DKCKKVYENYPVSKCQLANQCNYDCKLDKHARSGECFYDEKRNLQCICDYCEY; listed as Pentadiplandra brazzeana) [sweet protein extracted from fruits of Pentadiplandra brazzeana (Baillon), 54 amino acids, 6.5 kDa]
- sweetness after heat treatment [3]: remains sweet

Molecule: OC[C@H]1O[C@@](CO)(O[C@H]2O[C@H](CO)[C@@H](O)[C@H](O)[C@H]2O)[C@@H](O)[C@@H]1O [sucrose]
- sweetness threshold of sucrose (reference) [4]: 10000 µg/mL

Molecule: Brazzein [Brazzein expressed by Pichia pastoris]
- sweetness relative to sucrose of the same weight [2]: 40 times

B1: ROLpro-BXT-D1: BXT-D1 expressed fused to leader peptide ROLpro, SEQ ID NO: 21; leader removed by cleavage (protein)
chain: DDNLVGGMTLDLPSDAPPISLSSSTNSAVALEKRDKCKKVYENYPVSKCQLANQCNYDCKLDKHARSGDCFYDAKRNLQCICDYCEY
modifications: ROLpro leader removed by cleavage
- Sweetness fold relative to 1% sucrose [1]: 6666.7 fold
- Concentration (μg/mL) corresponding to threshold [1]: 1.5 ± 0.3 µg/mL

B2: ROLpro-BXT-D2: BXT-D2 expressed fused to leader peptide ROLpro, SEQ ID NO: 23; leader removed by cleavage (protein)
chain: B1 chain with A74D
modifications: ROLpro leader removed by cleavage
- Sweetness fold relative to 1% sucrose [1]: 3703.7 fold
- Concentration (μg/mL) corresponding to threshold [1]: 2.7 ± 0.5 µg/mL

B3: ROLpro-BXT-D4: BXT-D4 expressed fused to leader peptide ROLpro, SEQ ID NO: 27; leader removed by cleavage (protein)
chain: B1 chain with A74R
modifications: ROLpro leader removed by cleavage
- Sweetness fold relative to 1% sucrose [1]: 8333.3 fold
- Concentration (μg/mL) corresponding to threshold [1]: 1.2 ± 0.2 µg/mL

B4: ROLpro-BXT: Brazzein BXT expressed fused to Rhizopus oryzae lipase leader peptide ROLpro with kex2 site, SEQ ID NO: 19; leader removed by cleavage (protein)
chain: B1 chain with D69E, A74E
modifications: ROLpro leader removed by kex2 cleavage
- Sweetness fold relative to 1% sucrose [1]: 613.5 fold
- Concentration (μg/mL) corresponding to threshold [1]: 16.3 ± 2.9 µg/mL

B5: ROLpro-BXT-D3: BXT-D3 expressed fused to leader peptide ROLpro, SEQ ID NO: 25; leader removed by cleavage (protein)
chain: B1 chain with A74K
modifications: ROLpro leader removed by cleavage
- Sweetness fold relative to 1% sucrose [1]: 6250 fold
- Concentration (μg/mL) corresponding to threshold [1]: 1.6 ± 0.3 µg/mL

B6: ROLpro-BXT-D6: BXT-D6 expressed fused to leader peptide ROLpro, SEQ ID NO: 31; leader removed by cleavage (protein)
chain: B1 chain with H64R, A74K
modifications: ROLpro leader removed by cleavage
- Sweetness fold relative to 1% sucrose [1]: 16666.7 fold
- Concentration (μg/mL) corresponding to threshold [1]: 0.6 ± 0.1 µg/mL

B7: ROLpro-BXT-D7: BXT-D7 expressed fused to leader peptide ROLpro, SEQ ID NO: 33; leader removed by cleavage (protein)
chain: B1 chain with H64R, A74R
modifications: ROLpro leader removed by cleavage
- Sweetness fold relative to 1% sucrose [1]: 16666.7 fold
- Concentration (μg/mL) corresponding to threshold [1]: 0.6 ± 0.1 µg/mL

B8: ROLpro-BXT-D5: BXT-D5 expressed fused to leader peptide ROLpro, SEQ ID NO: 29; leader removed by cleavage (protein)
chain: B1 chain with H64R
modifications: ROLpro leader removed by cleavage
- Sweetness fold relative to 1% sucrose [1]: 8333.3 fold
- Concentration (μg/mL) corresponding to threshold [1]: 1.2 ± 0.2 µg/mL

Source: US20260209285A1, “SWEET-TASTING PROTEIN BRAZZEIN MUTANT HAVING HIGH SWEETNESS AND PREPARATION METHOD THEREFOR” (NANJING BESTZYME BIO-ENGINEERING CO., LTD., priority 2022, published 2026)
